Measurements taken from US6849458 (dated 2005).

B1: Hirugen (hirudin 53-64), P01050 53-64 (peptide)
peptide: DGDFEEIPEEYL
modifications: not checked
B2: EEEEE (peptide)
peptide: EEEEE
B3: EEEEEEEE (peptide)
peptide: EEEEEEEE

Assays:
[1] = molecular target: human α-thrombin (human), P00734; assay: microplate thermal shift assay, 1,8-ANS fluorescence, 50 µM ligand, single ligand
[2] = molecular target: human α-thrombin (human), P00734; assay: microplate thermal shift assay; Kd at Tm of Hirugen for thrombin with 50 µM 3dp-4660 present
[3] = molecular target: human α-thrombin (human), P00734; assay: microplate thermal shift assay; Kd at 298 K of Hirugen for thrombin with 50 µM 3dp-4660 present
[4] = molecular target: human α-thrombin (human), P00734; assay: microplate thermal shift assay; Kd at Tm of Hirugen for thrombin with 200 µM heparin 5000 present
[5] = molecular target: human α-thrombin (human), P00734; assay: microplate thermal shift assay; Kd at 298 K of Hirugen for thrombin with 200 µM heparin 5000 present
[6] = molecular target: human α-thrombin (human), P00734; assay: microplate thermal shift assay; 50 µM Hirugen added to thrombin with 50 µM 3dp-4660 present, shift against TH/3dp-4660
[7] = molecular target: human α-thrombin (human), P00734; assay: microplate thermal shift assay; 50 µM Hirugen added to thrombin with 200 µM heparin 5000 present, shift against TH/heparin 5000
[8] = molecular target: T1, acidic fibroblast growth factor (aFGF) (UniProt P05230 16-155, limits assumed); assay: microplate thermal shift assay, turbidity signal, 50 µM ligand
T1 sequence (P05230 16-155 limits assumed): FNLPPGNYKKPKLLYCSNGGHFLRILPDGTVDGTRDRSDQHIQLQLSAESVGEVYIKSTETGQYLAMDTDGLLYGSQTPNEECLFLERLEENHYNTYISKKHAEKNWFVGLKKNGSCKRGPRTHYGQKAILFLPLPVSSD

[9] = molecular target: T1, acidic fibroblast growth factor (aFGF); assay: microplate thermal shift assay, turbidity signal; Kd at 298 K estimated with equation (3)
[10] = molecular target: T1, acidic fibroblast growth factor (aFGF); assay: microplate thermal shift assay, turbidity signal; Kd at Tm (322.15 K) calculated with equation (1)

| Binder | ΔTm [1] | Kd [2] | Kd [3] | Kd [4] | Kd [5] | ΔTm [6] | ΔTm [7] | ΔTm [8] | Kd [9] | Kd [10] |
| --- | --- | --- | --- | --- | --- | --- | --- | --- | --- | --- |
| B1 | 5.8 ° K | 731 nM | 54 nM | 4250 nM | 478 nM | 4.6 ° K | 2.6 ° K | – | – | – |
| B2 | – | – | – | – | – | – | – | 0 ° K | – | – |
| B3 | – | – | – | – | – | – | – | 5 ° K | 3040 nM | 10100 nM |
